Experiment [1] addresses activated c-Myc-C1s–CCP1–CCP2–SP_(S632A) (human) (UniProt P09871). Put plainly: AlphaScreen or HTRF; competition: 50 nM GST-ElpQ on glutathione donor beads and 500 nM activated c-Myc-C1s–CCP1–CCP2–SP_(S632A) on anti-c-Myc acceptor beads, 12-point twofold dilution of untagged competitor; HBS-T Ca2+, 1 h at room temperature; IC50 taken to approximate KD (Cheng–Prusoff). (In general: In Alpha technology, singlet oxygen from a donor bead excites a nearby acceptor bead.)

In experiment [2] the target is ElpQ_(181–343) (B. burgdorferi). Put plainly: SPR; Elp truncation amine-coupled to a CMD200 chip; multicycle twofold injection series of C1s enzyme or activated C1s–CCP1–CCP2–SP constructs from 200 nM; HBS-T Ca2+ (10 mM Hepes pH 7.3, 140 mM NaCl, 0.005% Tween-20, 5 mM CaCl2), 30 ul/min; K_(D, kin) from a kinetic and K_(D, ss) from a steady-state 1:1 (Langmuir) fit; triplicate. Background: SPR reads the build-up and loss of mass on a sensor chip optically.

Experiment [3] concerns the target ElpB_(182–378) (B. burgdorferi) (UniProt H7C7R2). The experiment is described as above.
The target in experiment [4] is ElpB_(111–378) (B. burgdorferi). The description is as above.
Experiment [5] deals with activated C1s–CCP1–CCP2–SP (human) (UniProt P09871).
Chain of activated C1s–CCP1–CCP2–SP (human) (P09871 292-688): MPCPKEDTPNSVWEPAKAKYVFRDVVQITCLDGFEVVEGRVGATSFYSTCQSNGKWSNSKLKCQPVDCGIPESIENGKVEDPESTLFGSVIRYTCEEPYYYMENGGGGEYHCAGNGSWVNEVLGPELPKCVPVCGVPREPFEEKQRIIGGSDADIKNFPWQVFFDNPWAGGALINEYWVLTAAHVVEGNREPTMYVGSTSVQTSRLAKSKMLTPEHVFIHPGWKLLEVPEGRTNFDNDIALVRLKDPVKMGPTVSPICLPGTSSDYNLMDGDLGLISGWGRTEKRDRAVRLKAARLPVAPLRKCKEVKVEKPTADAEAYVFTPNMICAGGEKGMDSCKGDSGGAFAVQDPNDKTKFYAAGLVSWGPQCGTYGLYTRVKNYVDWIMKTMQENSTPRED

These results are taken from paper PMC9637899.

One may read the Kd as the constant that tells how readily two partners part at equilibrium. A higher Kd goes with lower affinity.

Values joined by “and” are separate entries in the source; they are usually repeats but may differ in a detail not shown here. Identical values can stand only once.

Chain of activated c-Myc-C1s–CCP1–CCP2–SP_(S632A) (human) (P09871 16-688 S632A): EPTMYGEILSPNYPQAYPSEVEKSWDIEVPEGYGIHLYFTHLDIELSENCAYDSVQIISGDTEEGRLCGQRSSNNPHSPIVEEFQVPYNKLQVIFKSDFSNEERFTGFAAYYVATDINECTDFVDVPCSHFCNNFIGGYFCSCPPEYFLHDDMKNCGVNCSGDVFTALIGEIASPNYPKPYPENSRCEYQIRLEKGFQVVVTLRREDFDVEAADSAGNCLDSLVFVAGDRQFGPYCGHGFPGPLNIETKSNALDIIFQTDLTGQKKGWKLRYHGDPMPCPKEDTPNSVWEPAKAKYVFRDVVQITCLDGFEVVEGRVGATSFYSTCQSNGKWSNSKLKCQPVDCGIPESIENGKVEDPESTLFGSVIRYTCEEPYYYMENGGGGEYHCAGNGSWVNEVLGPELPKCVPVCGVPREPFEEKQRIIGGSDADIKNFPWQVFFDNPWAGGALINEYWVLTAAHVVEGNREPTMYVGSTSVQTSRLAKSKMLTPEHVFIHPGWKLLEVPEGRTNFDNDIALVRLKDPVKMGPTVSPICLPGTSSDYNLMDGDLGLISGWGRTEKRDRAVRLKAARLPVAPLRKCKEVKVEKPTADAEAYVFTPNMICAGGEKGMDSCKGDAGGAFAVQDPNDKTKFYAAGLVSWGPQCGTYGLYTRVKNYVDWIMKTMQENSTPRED

“ElpB_(182–378) (from UniProt H7C7R2 182-378) (domain or fragment)”: the Kd in experiment [1] came out at 0.045 µM. In other words, the double-digit nanomolar range.

ElpQ_(19–343) (natural protein) had a Kd in experiment [1] of 0.19 µM. Compared with the last substance, the Kd is about 4.2-fold higher.

“C1s CCP1–CCP2–SP CCPE (from UniProt P09871) (domain or fragment)”: the Kd worked out at 0.37 µM in experiment [2] and 0.57 µM in experiment [3].

With “purified full-length activated C1s enzyme”, the Kd was 0.017 µM and 0.031 µM in experiment [2]; 0.047 µM and 0.085 µM in experiment [3]; 0.021 µM and 0.035 µM in experiment [4].

In experiment [5], ElpQ_(181–343) (domain or fragment) gave an IC50 of inhibition of C4 cleavage by 6.25 nM activated C1s–CCP1–CCP2–SP, SDS-PAGE densitometry, ElpQ (181–343) 25 to 0.20 uM; blocks m9 with m17 of 3.6 µM. In addition, the Kd in experiment [1] turned out to be 0.11 µM.

For the substance “complement component C4 (natural protein)”, the Kd in experiment [1] turned out to be 0.74 µM. In other words, the sub-micromolar range.

In the case of “activated C1s–CCP1–CCP2–SP (from UniProt P09871 292-688) (domain or fragment)”, the Kd in experiment [2] amounted to 0.21 µM.
